Experimental data: patent US20140087995A1 (published 2014)
Numbered stars: 1 amine (or outer) side, 2 acyl side, 3 side chain; on linkers, the order of the positions; unused ones are H or OH. Bridge positions count the residues as written; N and C are the ends. Side chains are listed from the residue outwards. Ends that are not written are not given here. * marks the point of attachment. C20 diacid = O=C(O)CCCCCCCCCCCCCCCCCCC(=O)*; γGlu = O=C(O)[C@H](CCC(=O)[*:2])N[*:1]; AEEA = NCCOCCOCC(=O)O

T1: human calcitonin receptor (human, UniProt P30988 25-474)
T1 construct: whole, on cells; also called hCTR; hCT
T1 sequence (looked up): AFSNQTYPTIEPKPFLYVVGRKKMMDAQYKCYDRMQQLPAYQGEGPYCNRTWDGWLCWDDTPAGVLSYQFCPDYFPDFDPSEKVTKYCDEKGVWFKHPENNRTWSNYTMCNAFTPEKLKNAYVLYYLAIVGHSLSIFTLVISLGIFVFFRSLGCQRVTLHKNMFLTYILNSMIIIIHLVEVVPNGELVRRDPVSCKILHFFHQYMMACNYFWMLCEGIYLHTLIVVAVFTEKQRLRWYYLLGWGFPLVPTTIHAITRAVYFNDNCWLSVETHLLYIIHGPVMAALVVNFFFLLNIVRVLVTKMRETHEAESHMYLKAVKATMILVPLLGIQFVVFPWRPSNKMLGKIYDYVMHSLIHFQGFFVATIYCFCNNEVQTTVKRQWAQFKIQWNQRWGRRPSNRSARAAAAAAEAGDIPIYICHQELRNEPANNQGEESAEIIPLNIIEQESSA


Target: T1, human calcitonin receptor
Test: SPA competition with 125I-calcitonin, membranes of BHK hCTR cells (Assay VII)
Experimental: Membranes were prepared in the following way; the cells were rinsed with PBS and incubated with Versene for approximately 5 min before harvesting. The cells were flushed with PBS and the cell-suspension was centrifuged for 5 min at 1000 rpm. Cells were homogenized (Ultrathurrax) in a buffer containing 20 mM Na-HEPES and 10 mM EDTA (pH 7.4) and centrifuged at 20.000 rpm for 15 min. The resulting pellet was resuspended, homogenized and centrifuged (20.000 rpm, 15 min) in a buffer containing 20 mM Na-HEPES and 0.1 mM EDTA (pH 7.4, buffer 2). The resulting pellet was resuspended in buffer 2 and protein concentration was measured (BCA protein Assay, Pierce). The homogenate was kept cold during the whole procedure. The membranes were kept at −80° C. until use. Assay was performed in a 384 well Optiplate (PerkinElmer) in a total volume of 40 ul. Membranes were mixed with SPA beads. Final concentration of membranes 35 ng/μL final and Final concentration of SPA beads was 0.05 mg/well. Test-compounds were dissolved in DMSO and further diluted in assay buffer (50 mM Hepes, pH 7.4, 1 mM CaCl2, 5 mM MgCl₂, 0.1% OA and 0.02% Tween20). […] The final mixture was incubated for 120 min with shaking at 400 rpm at 25° C. prior to centrifugation (1500 rpm, 10 min). Samples were analyzed on TopCounter™ (Packard). The […] was calculated using (one site binding competition analysis) GraphPad Prism5 as a measure of receptor affinity.

Binder | IC50
{C20 diacid-γGlu}-KCNTATCATQRLAHFLRHSSPNFGAIPSSTNVGSETY-NH2 (disulfide 2-7; SMILES CC[C@H](C)[C@H](NC(=O)[C@H](C)NC(=O)CNC(=O)[C@H](Cc1ccccc1)NC(=O)[C@H](CC(N)=O)NC(=O)[C@@H]1CCCN1C(=O)[C@H](CO)NC(=O)[C@H](CO)NC(=O)[C@H](Cc1c[nH]cn1)NC(=O)[C@H](CCCNC(=N)N)NC(=O)[C@H](CC(C)C)NC(=O)[C@H](Cc1ccccc1)NC(=O)[C@H](Cc1c[nH]cn1)NC(=O)[C@H](C)NC(=O)[C@H](CC(C)C)NC(=O)[C@H](CCCNC(=N)N)NC(=O)[C@H](CCC(N)=O)NC(=O)[C@@H](NC(=O)[C@H](C)NC(=O)[C@@H]1CSSC[C@H](NC(=O)[C@H](CCCCN)NC(=O)CC[C@H](NC(=O)CCCCCCCCCCCCCCCCCCC(=O)O)C(=O)O)C(=O)N[C@@H](CC(N)=O)C(=O)N[C@@H]([C@@H](C)O)C(=O)N[C@@H](C)C(=O)N[C@@H]([C@@H](C)O)C(=O)N1)[C@@H](C)O)C(=O)N1CCC[C@H]1C(=O)N[C@@H](CO)C(=O)N[C@@H](CO)C(=O)N[C@H](C(=O)N[C@@H](CC(N)=O)C(=O)N[C@H](C(=O)NCC(=O)N[C@@H](CO)C(=O)N[C@@H](CCC(=O)O)C(=O)N[C@H](C(=O)N[C@@H](Cc1ccc(O)cc1)C(N)=O)[C@@H](C)O)C(C)C)[C@@H](C)O, also called compound 30) | 21.6 nM
K([AEEA-AEEA-γGlu-C20 diacid])CNTATCATQRLANFLRHSSPNFGAIPSSTNVGSETY-NH2 (disulfide 2-7; N-terminus assumed; SMILES CC[C@H](C)[C@H](NC(=O)[C@H](C)NC(=O)CNC(=O)[C@H](Cc1ccccc1)NC(=O)[C@H](CC(N)=O)NC(=O)[C@@H]1CCCN1C(=O)[C@H](CO)NC(=O)[C@H](CO)NC(=O)[C@H](Cc1c[nH]cn1)NC(=O)[C@H](CCCNC(=N)N)NC(=O)[C@H](CC(C)C)NC(=O)[C@H](Cc1ccccc1)NC(=O)[C@H](CC(N)=O)NC(=O)[C@H](C)NC(=O)[C@H](CC(C)C)NC(=O)[C@H](CCCNC(=N)N)NC(=O)[C@H](CCC(N)=O)NC(=O)[C@@H](NC(=O)[C@H](C)NC(=O)[C@@H]1CSSC[C@H](NC(=O)[C@@H](N)CCCCNC(=O)COCCOCCNC(=O)COCCOCCNC(=O)CC[C@H](NC(=O)CCCCCCCCCCCCCCCCCCC(=O)O)C(=O)O)C(=O)N[C@@H](CC(N)=O)C(=O)N[C@@H]([C@@H](C)O)C(=O)N[C@@H](C)C(=O)N[C@@H]([C@@H](C)O)C(=O)N1)[C@@H](C)O)C(=O)N1CCC[C@H]1C(=O)N[C@@H](CO)C(=O)N[C@@H](CO)C(=O)N[C@H](C(=O)N[C@@H](CC(N)=O)C(=O)N[C@H](C(=O)NCC(=O)N[C@@H](CO)C(=O)N[C@@H](CCC(=O)O)C(=O)N[C@H](C(=O)N[C@@H](Cc1ccc(O)cc1)C(N)=O)[C@@H](C)O)C(C)C)[C@@H](C)O, also called compound 25) | 43.4 nM
K([AEEA-γGlu-C20 diacid])CNTATCATQRLANFLRHSSPNFGAIPPSTPVGSNTY-NH2 (disulfide 2-7, also called compound 53) | 5.38 nM
K([AEEA-γGlu-C20 diacid])CNTATCATQRLANFLRHSSPNFGAIPSSTNVGSETY-NH2 (disulfide 2-7; N-terminus assumed; SMILES CC[C@H](C)[C@H](NC(=O)[C@H](C)NC(=O)CNC(=O)[C@H](Cc1ccccc1)NC(=O)[C@H](CC(N)=O)NC(=O)[C@@H]1CCCN1C(=O)[C@H](CO)NC(=O)[C@H](CO)NC(=O)[C@H](Cc1c[nH]cn1)NC(=O)[C@H](CCCNC(=N)N)NC(=O)[C@H](CC(C)C)NC(=O)[C@H](Cc1ccccc1)NC(=O)[C@H](CC(N)=O)NC(=O)[C@H](C)NC(=O)[C@H](CC(C)C)NC(=O)[C@H](CCCNC(=N)N)NC(=O)[C@H](CCC(N)=O)NC(=O)[C@@H](NC(=O)[C@H](C)NC(=O)[C@@H]1CSSC[C@H](NC(=O)[C@@H](N)CCCCNC(=O)COCCOCCNC(=O)CC[C@H](NC(=O)CCCCCCCCCCCCCCCCCCC(=O)O)C(=O)O)C(=O)N[C@@H](CC(N)=O)C(=O)N[C@@H]([C@@H](C)O)C(=O)N[C@@H](C)C(=O)N[C@@H]([C@@H](C)O)C(=O)N1)[C@@H](C)O)C(=O)N1CCC[C@H]1C(=O)N[C@@H](CO)C(=O)N[C@@H](CO)C(=O)N[C@H](C(=O)N[C@@H](CC(N)=O)C(=O)N[C@H](C(=O)NCC(=O)N[C@@H](CO)C(=O)N[C@@H](CCC(=O)O)C(=O)N[C@H](C(=O)N[C@@H](Cc1ccc(O)cc1)C(N)=O)[C@@H](C)O)C(C)C)[C@@H](C)O, also called compound 26) | 25.3 nM

More lines, now with the values ahead:

IC50 | Binder
42.4 nM | K([AEEA-γGlu-C20 diacid])CNTATCATQRLAAFLRHSSPNFGAIPSSTPVGSNTY-NH2 (disulfide 2-7; N-terminus assumed; SMILES CC[C@H](C)[C@H](NC(=O)[C@H](C)NC(=O)CNC(=O)[C@H](Cc1ccccc1)NC(=O)[C@H](CC(N)=O)NC(=O)[C@@H]1CCCN1C(=O)[C@H](CO)NC(=O)[C@H](CO)NC(=O)[C@H](Cc1c[nH]cn1)NC(=O)[C@H](CCCNC(=N)N)NC(=O)[C@H](CC(C)C)NC(=O)[C@H](Cc1ccccc1)NC(=O)[C@H](C)NC(=O)[C@H](C)NC(=O)[C@H](CC(C)C)NC(=O)[C@H](CCCNC(=N)N)NC(=O)[C@H](CCC(N)=O)NC(=O)[C@@H](NC(=O)[C@H](C)NC(=O)[C@@H]1CSSC[C@H](NC(=O)[C@@H](N)CCCCNC(=O)COCCOCCNC(=O)CC[C@H](NC(=O)CCCCCCCCCCCCCCCCCCC(=O)O)C(=O)O)C(=O)N[C@@H](CC(N)=O)C(=O)N[C@@H]([C@@H](C)O)C(=O)N[C@@H](C)C(=O)N[C@@H]([C@@H](C)O)C(=O)N1)[C@@H](C)O)C(=O)N1CCC[C@H]1C(=O)N[C@@H](CO)C(=O)N[C@@H](CO)C(=O)N[C@H](C(=O)N1CCC[C@H]1C(=O)N[C@H](C(=O)NCC(=O)N[C@@H](CO)C(=O)N[C@@H](CC(N)=O)C(=O)N[C@H](C(=O)N[C@@H](Cc1ccc(O)cc1)C(N)=O)[C@@H](C)O)C(C)C)[C@@H](C)O, also called compound 72)
56 nM | K([AEEA-γGlu-C20 diacid])CNTATCATQRLARFLRHSSPNFGAIPSSTPVGSNTY-NH2 (disulfide 2-7; N-terminus assumed; SMILES CC[C@H](C)[C@H](NC(=O)[C@H](C)NC(=O)CNC(=O)[C@H](Cc1ccccc1)NC(=O)[C@H](CC(N)=O)NC(=O)[C@@H]1CCCN1C(=O)[C@H](CO)NC(=O)[C@H](CO)NC(=O)[C@H](Cc1c[nH]cn1)NC(=O)[C@H](CCCNC(=N)N)NC(=O)[C@H](CC(C)C)NC(=O)[C@H](Cc1ccccc1)NC(=O)[C@H](CCCNC(=N)N)NC(=O)[C@H](C)NC(=O)[C@H](CC(C)C)NC(=O)[C@H](CCCNC(=N)N)NC(=O)[C@H](CCC(N)=O)NC(=O)[C@@H](NC(=O)[C@H](C)NC(=O)[C@@H]1CSSC[C@H](NC(=O)[C@@H](N)CCCCNC(=O)COCCOCCNC(=O)CC[C@H](NC(=O)CCCCCCCCCCCCCCCCCCC(=O)O)C(=O)O)C(=O)N[C@@H](CC(N)=O)C(=O)N[C@@H]([C@@H](C)O)C(=O)N[C@@H](C)C(=O)N[C@@H]([C@@H](C)O)C(=O)N1)[C@@H](C)O)C(=O)N1CCC[C@H]1C(=O)N[C@@H](CO)C(=O)N[C@@H](CO)C(=O)N[C@H](C(=O)N1CCC[C@H]1C(=O)N[C@H](C(=O)NCC(=O)N[C@@H](CO)C(=O)N[C@@H](CC(N)=O)C(=O)N[C@H](C(=O)N[C@@H](Cc1ccc(O)cc1)C(N)=O)[C@@H](C)O)C(C)C)[C@@H](C)O, also called compound 64)
